From PMC9083066

System: T1, FabT (Enterococcus faecalis), ORF:b010fabc
T1 sequence: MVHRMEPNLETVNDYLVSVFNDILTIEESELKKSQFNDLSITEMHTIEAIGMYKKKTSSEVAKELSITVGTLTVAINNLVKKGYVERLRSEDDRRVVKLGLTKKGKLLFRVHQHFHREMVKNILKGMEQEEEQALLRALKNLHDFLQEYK
Experiment: EMSA
Conditions: 10 nM DNA, 0.1 uM FabT, 0-10 uM acyl-ACP, 10 mM Tris-HCl pH 7.0, 50 mM NaCl, 1 mM EDTA, 1 mM DTT, 10% glycerol, room temperature, 30 min; 6% native PAGE

Sequence: GTCAGGATCCGTCGACATCTGTATTCACCTCCACTGCTTTTGAAAAAAGGTTCTTTCTTTTACTAAAACGCTAAGATACATTGTACTCACAATTTGGGTATTTGTCCATCTTTTTTTCATTTGAGTAACAAACTGATGTCAAGACAATTGCAAATTACTGCAGAATTCTGAC (double strand) [E. faecalis acpB promoter]
- binding: no binding
